Laboratory results taken from US20140242093, “METHODS AND COMPOSITIONS FOR MODULATING THE INNATE IMMUNE RESPONSE AND/OR MYOGENESIS IN A MAMMALIAN SUBJECT” (FRED HUTCHINSON CANCER RESEARCH CENTER, published 2014).

Target: DUX4-fl (Homo sapiens, UniProt Q9UBX2 SEQ:1-424)
Assay: EMSA; cold mutant does not compete
Conditions: tags: pCS2-DUX4-fl, TNT SP6 wheat germ
Method: EMSA was performed with ³²P-labeled 31-bp oligonucleotides from endogenous genomic sequences containing the putative DUX4 binding site as probes (sequences below; only forward shown). Radiolabeled probes were incubated with in vitro translated protein generated from pCS2-DUX4-fl or pCS2-DUX4-s² vectors using the TNT SP6 Coupled Wheat Germ Extract System (Promega) according to manufacturer's instructions. To obtain supershift of protein-DNA complexes, 0.1 μg of E14-3 anti-DUX4 rabbit monoclonal antibody was added to the mixtures. For competition experiments, excess unlabeled probes of either wild-type or mutant sequences were included in the binding reaction. The gels were prepared and run as previously described (Knoepfler et al., 1999).
Electrophoretic mobility shift assay (EMSA) confirmed that DUX4-fl binds the core motifs present in both MaLR-associated and non-repeat associated sites: TRIM48 oligos—the TAATTTAATCA (SEQ ID NO:169) core sequence found near the TRIM48 gene, CSF1R oligos—the TAATTGAATCA (SEQ ID NO:171) core sequence found within the LTR of a THE1B retroelement near the CSF1R gene, and THE1D oligos—the TAATCCAATCA (SEQ ID NO:172) core sequence found within the LTR of the THE1D retroelement. […] Because the DUX4-s alternative splice form retains the N-terminal DNA-binding homeodomains, the inventors hypothesized that it would bind to the same sites as DUX4-fl. EMSA confirmed that DUX4-s specifically binds the same core binding site as DUX4-fl in vitro.

Chain of DUX4-fl (Q9UBX2 whole entry): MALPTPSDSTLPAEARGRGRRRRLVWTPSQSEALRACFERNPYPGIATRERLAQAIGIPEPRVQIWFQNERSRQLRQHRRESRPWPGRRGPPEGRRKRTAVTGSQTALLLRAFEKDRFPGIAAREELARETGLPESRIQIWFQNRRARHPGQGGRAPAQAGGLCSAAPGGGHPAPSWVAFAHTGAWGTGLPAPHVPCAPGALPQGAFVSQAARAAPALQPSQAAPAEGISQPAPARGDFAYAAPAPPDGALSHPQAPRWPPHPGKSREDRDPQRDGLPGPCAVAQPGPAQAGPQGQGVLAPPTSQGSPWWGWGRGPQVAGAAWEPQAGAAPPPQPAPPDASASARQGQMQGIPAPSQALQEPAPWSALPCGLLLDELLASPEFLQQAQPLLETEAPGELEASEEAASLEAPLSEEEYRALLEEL

| Binder | binding result |
| --- | --- |
| THE1Dmut (dsDNA) DNA 1: CCTGTGGGAGGTACTCCTATGATGGAGGCAG DNA 2: CTGCCTCCATCATAGGAGTACCTCCCACAGG | no binding |
| TRIM48mut (dsDNA) DNA 1: AGGAGTGATGATACTTTTATGAGCCGTGCAA DNA 2: TTGCACGGCTCATAAAAGTATCATCACTCCT | no binding |
| CSF1Rmut (dsDNA) DNA 1: CCAGGTGGAGATACTTGTATGATGGGGGCAG DNA 2: CTGCCCCCATCATACAAGTATCTCCACCTGG | no binding |
